# In patent publication US8609370:
# Legend:
# [1] = target: Leukine (commercial rhGM-CSF of Schering AG, expressed in yeast) (human) (UniProt P04141); assay: cell-based or functional assay
# [2] = target: rhGM-CSF expressed in NM-F9 cells cultured with 90 mM ManNAc (optimal sialylation form of rhGM-CSF) (human) (UniProt P04141); assay: cell-based or functional assay
substance,measurement,setting,value
anti-human GM-CSF antibody BVD2-23 B6,"stimulation of TF-1 cell proliferation (BrdU-proliferation assay), blocking at 5 µg/ml antibody",[1],60%
same,"stimulation of TF-1 cell proliferation (BrdU-proliferation assay), blocking at 5 µg/ml antibody",[2],60%
